Laboratory results taken from the supplement of paper PMC10724198.
± gives the standard deviation of the averaged measurements.

Test system: Saccharomyces cerevisiae
Test: protein stability index of tFT-peptide fusion (C-terminal peptide) (PSI (0-1 scale)); higher = more stable (slower turnover)
Conditions: genetic background: wild type; temperature: 30 C
Experimental: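 Multiplexed protein stability (MPS) profiling in S. cerevisiae. Random 12-aa peptides (tFT-X12 library) are fused to the C-terminus of a sfGFP-mCherry tandem fluorescent timer, after mCherry and a GGGS linker. Cells are FACS-sorted into 8 mCherry/sfGFP bins and deep-sequenced. The protein stability index (PSI) is the read-weighted bin average, scaled from 0 (unstable) to 1 (stable). Only peptides with >10 reads are reported; cells were grown at 30 °C in SC-His with glucose.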
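Note: PSI is a weighted mean of sequencing reads over stability bins, variants kept only with over 10 reads, mCherry proximal and sfGFP distal, peptide attached via GGGS linker.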

Point of comparison: GRSCSSWSSWGF, protein stability index 0.716 ± 0.01. Against it:
- GLRAAGCRAVGG — lower, 0.672 ± 0.025
- GLRGFCGVIEFF — within error, 0.721 ± 0.14
- GLRGRRRAAGRV — within error, 0.726 ± 0.06
- GLRLLVLPDSWS — within error, 0.682 ± 0.056
- GLSSPLPLALPV — lower, 0.649 ± 0.023
- GLSVVFRIPPGS — within error, 0.735 ± 0.043
- GLVLVGGGGGAV — lower, 0.577 ± 0.051
- GLVWLGFWCYPL — lower, 0.55646 ± 6.9e-05
- GLWAEGCGGEVV — lower, 0.653 ± 0.0083
- GLWSGWGMVGCV — within error, 0.737 ± 0.047
- GLYSIAGGSFGE — within error, 0.721 ± 0.026
- GLYYRGPSKKER — within error, 0.73 ± 0.02
- GMFDCIPPGTIP — within error, 0.741 ± 0.094
- GMGESGAGMVGW — within error, 0.727 ± 0.013
- GMGRGRGNANEG — lower, 0.622 ± 0.045
- GMLCRAGPVRNV — within error, 0.732 ± 0.011
- GMNCDMCRIRTL — lower, 0.683 ± 0.0088
- GMSFNVPLWGSI — within error, 0.69 ± 0.086
- GMVEVSTKTKRR — within error, 0.719 ± 0.0092
- GMVSPVRIVSRR — lower, 0.654 ± 0.024
- GMWFRIGHCRFA — within error, 0.684 ± 0.058
- GMWGGLSPFLGQ — lower, 0.691 ± 0.015
- GNDRRKNNICEI — within error, 0.701 ± 0.034
- GNLPQIIYSKVQ — lower, 0.609 ± 0.037
- GNPRRNLSTSSR — within error, 0.712 ± 0.02
- GNRNGEFINTQI — lower, 0.665 ± 0.027
- GNRYLCIEVTWV — lower, 0.48 ± 0.055
- GPEYPFRCRRLF — lower, 0.665 ± 0.039
- GPFPPCVVPSSS — lower, 0.643 ± 0.048
- GPFWPGRFGFLC — lower, 0.616 ± 0.0078
- GPGGPGGGWPLQ — within error, 0.687 ± 0.024
- GPGSGWWVSCSL — within error, 0.751 ± 0.04
- GPKGLLKATSLS — within error, 0.659 ± 0.064
- GPLVQVTSYSRY — lower, 0.691 ± 0.0077
- GPNRCPGRPVTP — within error, 0.703 ± 0.032
- GPPFPPLPLPPP — within error, 0.658 ± 0.079
- GPPHSGPIYLFP — lower, 0.6748 ± 0.0043
- GPPPPPPPRPPP — lower, 0.634 ± 0.007
- GPRLSGGLGGVG — lower, 0.637 ± 0.045
- GPRRGRSGSGWM — lower, 0.6499 ± 0.0057
- GPSKTGRPLSGT — within error, 0.713 ± 0.026
- GPTPHQPRMDPR — lower, 0.693 ± 0.011
- GPTRAIIFERRY — within error, 0.741 ± 0.17
- GPVVHSAPRVRL — within error, 0.686 ± 0.069
- GPWAGVRAEVKA — lower, 0.6505 ± 0.0047
- GQGEGRGKIKKG — higher, 0.782 ± 0.037
- GQPLLVCMSGFW — lower, 0.684 ± 0.01
- GQSSYFRRFRVG — lower, 0.6185 ± 0.0031
- GRAGQPCEGALP — lower, 0.652 ± 0.021
- GRCLGREGVCGL — lower, 0.673 ± 0.018
- GRCLSGRVVGGG — within error, 0.7145 ± 0.0014
- GRCLWGRVGSVM — within error, 0.707 ± 0.018
- GRCPPPSPPHPL — within error, 0.68 ± 0.038
- GRCRPATLRGPG — lower, 0.656 ± 0.012
- GREEDLVAPPFN — within error, 0.715 ± 0.054
- GRFCGGAVSGGM — lower, 0.634 ± 0.041
- GRFSHRCGGGVW — lower, 0.622 ± 0.046
- GRFVAPDSHPVG — lower, 0.682 ± 0.021
- GRGAGRATQSPP — lower, 0.597 ± 0.064
- GRGCRGKDWWLW — within error, 0.74 ± 0.055
- GRGEEKRDGGRR — within error, 0.673 ± 0.059
- GRGEKKKGAKKI — within error, 0.728 ± 0.028
- GRGERDIGVNQS — lower, 0.6792 ± 0.0031
- GRGFGVILGGCS — within error, 0.692 ± 0.02
- GRGGEGQGKRRE — lower, 0.668 ± 0.034
- GRGSAVTGVYGV — within error, 0.664 ± 0.059
- GRHRGNVWGAVA — within error, 0.701 ± 0.043
- GRKAEAEASLFS — within error, 0.643 ± 0.1
- GRKKKRREEKDT — lower, 0.609 ± 0.027
- GRKKTSAGGNQE — within error, 0.702 ± 0.11
- GRKLLAGPDGDI — lower, 0.658 ± 0.039
- GRLSQWVPNGRA — within error, 0.681 ± 0.076
- GRNAGPSLLPAL — within error, 0.684 ± 0.038
- GRNDYYTRKISV — within error, 0.728 ± 0.17
- GRNMQVTVQNRG — within error, 0.735 ± 0.02
- GRPSSMCTGWKV — within error, 0.74 ± 0.054
- GRPYPPHFQHPS — higher, 0.773 ± 0.022
- GRRRCGGGVEVC — lower, 0.668 ± 0.014
- GRSGGVGVLWGG — within error, 0.728 ± 0.017
- GRSGSGGTWELG — lower, 0.643 ± 0.039
- GRSHVGGCGGEG — within error, 0.693 ± 0.035
- GRSRAALASHIL — lower, 0.612 ± 0.058
- GRTCCGGGVGFG — lower, 0.595 ± 0.033
- GRTEMNRIETTS — within error, 0.699 ± 0.037
- GRVRGVEGIGKG — lower, 0.663 ± 0.018
- GRVVLRISCAQI — lower, 0.6144 ± 0.00074
- GRVVVKTFRDFF — lower, 0.635 ± 0.064
- GSAFIRFRSSFG — lower, 0.638 ± 0.022
- GSCTVLPPPGPP — within error, 0.724 ± 0.018
- GSFGQLIIRYSS — lower, 0.568 ± 0.0088
- GSFLGVRPGNVF — higher, 0.828 ± 0.055
- GSGGGEVCGCGG — within error, 0.681 ± 0.048
- GSGIFHPVDLGL — within error, 0.688 ± 0.02
- GSGLEAGVRRWG — lower, 0.67 ± 0.016
- GSGRGRETYIAK — lower, 0.67947 ± 0.0002
- GSGRPARCVEGG — lower, 0.644 ± 0.03
- GSGVGSRARRGR — within error, 0.695 ± 0.02
- GSHGRLSWHVSR — lower, 0.7008 ± 0.00074
- GSLEGGGSGGGW — lower, 0.6743 ± 0.0048
- GSLFLRQHTLLR — lower, 0.645 ± 0.0077
- GSLRRSHYLLRA — lower, 0.588 ± 0.086
- GSLVGATVSKEC — within error, 0.63 ± 0.083
- GSLWGAFFRGLL — within error, 0.688 ± 0.04
- GSLWGGFFRGLL — lower, 0.70105 ± 0.00018
- GSMCYRTVTNLR — lower, 0.593 ± 0.017
- GSMVWVRCGLER — lower, 0.634 ± 0.022
- GSNPYNRHLINI — within error, 0.693 ± 0.02
- GSPALGSCSWSR — lower, 0.627 ± 0.057
- GSPCPIVLICGL — lower, 0.504 ± 0.034
- GSQHSPRPFFFQ — within error, 0.72 ± 0.038
- GSQLFESVVVRV — within error, 0.679 ± 0.061
- GSQPSQRRSSGA — lower, 0.679 ± 0.014
- GSRAWERSERVR — within error, 0.649 ± 0.084
- GSRIVCFWSGAG — within error, 0.717 ± 0.011
- GSRLIGGFIVVG — lower, 0.6365 ± 0.0021
- GSRPPPRPLFPS — within error, 0.697 ± 0.048
- GSSAVGWGGVWW — within error, 0.796 ± 0.11
- GSSGPCRSHVLG — within error, 0.694 ± 0.02
- GSSYDSEISRQS — within error, 0.732 ± 0.0089
- GSTSLILSMSPA — within error, 0.693 ± 0.027
- GSVCVGGFGFFG — lower, 0.657 ± 0.039
- GSVLPPPSSPPL — within error, 0.704 ± 0.013
- GSWDEFGVYSRV — lower, 0.6126 ± 0.0058
- GTALERMWLEIE — higher, 0.7387 ± 0.0024
- GTLGRMVTPAAW — lower, 0.6358 ± 0.0039
- GTPHSKGVGFDH — lower, 0.655 ± 0.048
- GTRQWPARSDVV — within error, 0.692 ± 0.031
- GTVEDVLIFYEP — within error, 0.691 ± 0.1
- GTVLSVARGWCV — within error, 0.692 ± 0.11
- GTWSVYSEKFVG — lower, 0.652 ± 0.0081
- GVAGRRGQRDVR — within error, 0.746 ± 0.088
- GVARSMAGWARC — within error, 0.703 ± 0.035
- GVDCPGPKRDRK — lower, 0.626 ± 0.011
- GVESRSCCVFWG — within error, 0.72 ± 0.012
- GVFIGWAGYKGT — lower, 0.661 ± 0.027
- GVFVVEWSGGEG — lower, 0.586 ± 0.064
- GVGCVGWGSSCA — within error, 0.673 ± 0.093
- GVGGGRVLLLRL — lower, 0.614 ± 0.042
- GVGGGWVGCGVI — within error, 0.764 ± 0.06
- GVGGVLLCCCIV — within error, 0.573 ± 0.35
- GVGMWCSRLRVG — lower, 0.5952 ± 0.00044
- GVGRGGSSRWLG — within error, 0.646 ± 0.06
- GVGSVQRCGGGG — lower, 0.6771 ± 0.0035
- GVGVWVVLGRAG — lower, 0.644 ± 0.031
- GVGVWWRGVIMG — lower, 0.615 ± 0.0095
- GVIFPQFDPCAL — higher, 0.788 ± 0.056
- GVKSSRRSLHGS — within error, 0.738 ± 0.037
- GVLGGGVFGGSV — within error, 0.631 ± 0.077
- GVLIDVFGRSAV — within error, 0.696 ± 0.029
- GVLLGSKFCQQL — within error, 0.641 ± 0.093
- GVLPRPPPTEGT — within error, 0.722 ± 0.041
- GVLQEYIGKKQK — within error, 0.723 ± 0.043
- GVLQYPPCTYPH — lower, 0.675 ± 0.0078
- GVLSLFGFNTVV — within error, 0.71 ± 0.16
- GVMTGGPPGGAG — lower, 0.642 ± 0.04
- GVPRNSCHYPYG — lower, 0.6462 ± 0.0049
- GVPVGVDSFHGV — lower, 0.66848 ± 4.1e-05
- GVRAVRSCRMQR — within error, 0.702 ± 0.072
- GVRCCGLCGVGV — lower, 0.615 ± 0.0088
- GVRGKDCMGGGM — lower, 0.613 ± 0.063
- GVRLRNLTIITI — within error, 0.697 ± 0.037
- GVRRVVKGTKGC — lower, 0.662 ± 0.013
- GVSCIAEGRGGL — lower, 0.668 ± 0.025
- GVSCIAEGRGGW — within error, 0.7143 ± 0.00091
- GVSWMRAGFEFM — higher, 0.779 ± 0.021
- GVSWSWRGCCRR — within error, 0.7109 ± 0.0058
- GVVGVQTLIISN — lower, 0.653 ± 0.043
- GVVGWWWVRGMG — higher, 0.756 ± 0.023
- GVVIGGAGYKGT — lower, 0.633 ± 0.058
- GVVSSSIFDLWS — within error, 0.746 ± 0.12
- GVVVIVKYKMGV — lower, 0.579 ± 0.031
- GVWLWVLGACRR — within error, 0.657 ± 0.057
- GVWVRGTRRGWG — within error, 0.741 ± 0.2
- GVYRGNNGSPVK — lower, 0.689 ± 0.0086
- GWAIKGPFTLRS — within error, 0.663 ± 0.044
- GWARQAADGWGG — within error, 0.709 ± 0.089
- GWCGGAIIRAWD — within error, 0.678 ± 0.039
- GWDRNVGWVVGR — within error, 0.735 ± 0.044
- GWESCLGVTRSV — within error, 0.69 ± 0.018
- GWEYMDERVNQS — higher, 0.74 ± 0.013
- GWGGGEGVEGEP — within error, 0.678 ± 0.048
- GWGGGGGGGAGG — within error, 0.665 ± 0.057
- GWGGGGGGRGWG — within error, 0.71 ± 0.055
- GWGSGSYRRRAV — within error, 0.695 ± 0.055
- GWMGGFLVMSID — within error, 0.686 ± 0.037
- GWNRVGDWGVCG — higher, 0.736 ± 0.01
- GWRAGGTGAPSR — lower, 0.653 ± 0.041
- GWRHFVLFWCGL — higher, 0.752 ± 0.022
- GWSCGGVGGGLG — within error, 0.71 ± 0.04
- GWSVWFGLGGVW — within error, 0.689 ± 0.022
- GWTVCVFGSCGV — within error, 0.692 ± 0.051
- GWWVVTLRSGLR — within error, 0.651 ± 0.09
- GYCLGVGLRLLH — lower, 0.562 ± 0.018
- GYRMEGRVDSGG — lower, 0.6495 ± 0.004
- GYTRYYRLLQSR — lower, 0.642 ± 0.028
